Here are results for 24 sequences from the supplement of paper PMC9170038.

In the series the test system is MS2 coat protein. In words: apparent KD of MS2 coat protein; designed switch direction (-1 OFF switch, 1 ON switch): -1; higher = weaker reporter binding. The method in brief:
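Stalled E. coli RNA polymerase transcribed designed RNA switches on Illumina chips, which were then titrated with SNAP-549-labelled MS2 coat protein, doubling from 0.7 or 1.5 nM to 3 µM. Steps lasted from 0.8–1.5 h at the lowest concentration to 10–20 min at the highest. The apparent KD is each design's median over clusters of curve-fitted normalised fluorescence.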

The mark [1] stands for this setting: Eterna round: R95, input ligand: microRNA oligo, concentration not stated.
Setting [2] is: input ligand: microRNA oligo, concentration not stated.
Where [3] appears, read: Eterna round: R95, input ligand: FMN 200 uM.
Where [4] appears, read: Eterna round: R95, input ligand: none.

Consider “AACAUGUGAGGAUAUGUCACAUGGCUCUUCGGAGCAAGAUGACAGAAGGCACAUGAGGAUCACCCAUGUGCAUC [Ex4-3: 27] (puzzle: Exclusion 4)”, for which the “apparent KD of MS2 coat protein” value under setting [1] came to 11.6 nM.
As for “AGAUUGCGGCAAGGAUAUCUUUGUCAACUUAAAACAUGAGGAUCACCCAUGUGCAUCUUCGUGUGAGAGAAGGUGCGGCGAUCC [Raesredi] (Eterna round: R96, puzzle: Exclusion NG 2)”, the “apparent KD of MS2 coat protein” value worked out at 1430 nM (input ligand: FMN 200 uM), 368 nM under setting [2] and 687 nM (input ligand: none).
In the case of “CCGUUGUCAGGAUAUCGUGCAUACAACGAAAGUUCUAUGUGCGAGAAGGGACAUGAGGAUCACCCAUGUUACGG [Omei Ex4 A1] (Eterna round: R97, puzzle: Exclusion 4)”, the “apparent KD of MS2 coat protein” value was found to be 90.3 nM (input ligand: FMN 200 uM) and 41.2 nM (input ligand: none).
With “GGAUUACGAGGAUAUCGAUUUUAGUACAUGAGGAUCACCCAUGUUGUCCAGGUCUCGUUUCGAGAAGGCGUGAUUC [LRO-Ex5-06] (puzzle: Exclusion 5)”, under setting [1], the “apparent KD of MS2 coat protein” value turned out to be 58.4 nM.
For the sequence “GCAGCAACUCUAAUCAAACUAACAUGAGGAUCACCCAUGUCUCAGGAUAUGGUCUGGAUUACAGGCCAGAAGGGAGAAAGCUGC [Eli exng3 - 049] (Eterna round: R96, puzzle: Exclusion NG 3)”, the “apparent KD of MS2 coat protein” value runs as follows: (input ligand: FMN 200 uM) 9.04 nM; under setting [2], 10.4 nM; (input ligand: none) 14.8 nM.
As to “CUUUUGUGAGGAUAUCAGUAGUAGAACAAUAGUACUACUACUGAGAAGGCACAUGAGGAUCACCCAUGUUCCUU [Fiskers Ex 4 Super stable 44 mod 6] (puzzle: Exclusion 4)”, the “apparent KD of MS2 coat protein” value under setting [1] was found to be 15.4 nM.
As to “AGUACUAACACGAAAGUGUUAGUACAAUAAGCUUGUGACACAUGAGGAUCACCCAUGUCCUCAUAAGCUCGUCUUAU [salish99_TOv2_r3_046] (puzzle: Sensor v3, turn-off variant 2)”, the “apparent KD of MS2 coat protein” value is, setting by setting: under setting [3], 23.9 nM; under setting [1], 656 nM; under setting [4], 25.6 nM.
Turning to “UUUUUCUUUGUAGGAUAUCGUUUUUUUUUUUUUCGAGAAGGACAUGAGGAUCACCCAUGUUUCAAAAUUUUUUUUUUUUUUUUU [First try] (Eterna round: R96, puzzle: Exclusion NG 1)”, the “apparent KD of MS2 coat protein” value stood at 25.1 nM (input ligand: FMN 200 uM), 13.3 nM under setting [2] and 17.8 nM (input ligand: none).
On to “GCGUCGAGUGUGAGGAUAUGCUGGUCCUUGGAUCAGCAGAAGGCACAUGAGGAUCACCCAUGUGAAUACGAUGC [JL bmx4 3.14] (puzzle: Brourd's mod of Exclusion 4)”, for which the “apparent KD of MS2 coat protein” value under setting [1] stood at 21.2 nM.
With “AAAUACAAGCAAAGAUCUUACAUGAGGAUCACCCAUGUGCUCGUCUUGUAAAGUACUAUCACGAAAGUGAUAGUACA [Sensor 3, v1 - 30] (puzzle: Sensor v3, turn-off variant 1)”, the “apparent KD of MS2 coat protein” value reads like this: under setting [3], 23.1 nM; under setting [1], 98.8 nM; under setting [4], 20.4 nM.
The corresponding values for “UUUAACAAGCCAGAUCCUCACAUGAGGAUCACCCAUGUGCUCGUCUGUUUUUGUACUAUCACGUUUGUGAUAGUGUU [Level Boss var2-08] (puzzle: Sensor v3, turn-off variant 1)” are 220 nM, 16.2 nM and 295 nM.
Take “AAAUGGCAAGGAUAUACAGUAAUGAGGCUUAUGUCCGCUAAACAUGAGGAUCACCCAUGUAGAAGGUGCAAAGA [Maarear] (Eterna round: R97, puzzle: Exclusion 2)”: the “apparent KD of MS2 coat protein” value (input ligand: FMN 200 uM) stood at 69.1 nM and the “apparent KD of MS2 coat protein” value (input ligand: none) stood at 42.4 nM.
“GCAUCCAAUGUGAGGAUAUACCUCUGGAUACAUAGGUAGAAGGCACAUGAGGAUCACCCAUGUUCCUAGGAUGC [Fiskers BMX 4 - 31] (puzzle: Brourd's mod of Exclusion 4)”: the “apparent KD of MS2 coat protein” value under setting [1] is 32.9 nM.
In the case of “UAAAUAAAUGUAGGAUAUCUGCACGUUUAGUGCAGAGAAGGACAUGAGGAUCACCCAUGUAUAGUAGCUUCGGCUACAAAUAAU [ENG1-C2] (Eterna round: R96, puzzle: Exclusion NG 1)”, the “apparent KD of MS2 coat protein” value worked out at 115 nM (input ligand: FMN 200 uM), 42.2 nM under setting [2] and 76.3 nM (input ligand: none).
Consider “GAUGUGUUAGGAUAUCGAAGUAUCUGUGCUGUGGCGAAUCACGAGAAGGAACAUGAGGAUCACCCAUGUGGUUG [Eternabot (L2) Solution 34] (Eterna round: R97, puzzle: Exclusion 4)”, for which the “apparent KD of MS2 coat protein” value (input ligand: FMN 200 uM) was 68.9 nM and the “apparent KD of MS2 coat protein” value (input ligand: none) worked out at 63.9 nM.
Consider “GCAGCAAAUUCCACUAAAAUCACAUGAGGAUCACCCAUGUCUCAGGAUAUGGUCUGGAUUACAGGCCAGAAGGGAGAAAGCUGC [Eli exng3 - 057] (Eterna round: R96, puzzle: Exclusion NG 3)”, for which the “apparent KD of MS2 coat protein” value is, setting by setting: (input ligand: FMN 200 uM) 25.8 nM; under setting [2], 23.6 nM; (input ligand: none) 27.6 nM.
Take “GUCUCACAUGAGGAUCACCCAUGUGAGGAUAUGGUUUCGCUGGCCGUAGCCAGUGGAACCAGAAGGCGCGUGAU [Mat - Exclusion 1 - JL Mod - D18] (Eterna round: R97, puzzle: Exclusion 1)”: the “apparent KD of MS2 coat protein” value was determined as 71.1 nM (input ligand: FMN 200 uM) and 65 nM (input ligand: none).
The like results for “UUAACAUGCUGGUGAUCAUACAUGAGGAUCACCCAUGUAACAAGCUUUUUGCUCGUCUUAUAAUUUAAGAUCACCAG [Stov1/7-A1] (Eterna round: R97, puzzle: Sensor, turn-off variant 1)” were, in that order, 17 nM and 15.9 nM.
The corresponding values for “GAUACCUCAGUGAGGAUAUUUUAUAGAUUAACCAGGAAGAAGGCACAUGAGGAUCACCCAUGUCCACGGCAGCC [Eternabot (L1) Solution 10] (Eterna round: R97, puzzle: Brourd's mod of Exclusion 4)” are 23.2 nM and 20.9 nM.
In the case of “AGAGACCGAGGAUAUACAUGAGGAUCACCCAUGUUGUUAGGUGAUGGAUUAAUGAUUGGUAGAAGGCGGAGAGA [Seems to work] (Eterna round: R97, puzzle: Exclusion 3)”, the “apparent KD of MS2 coat protein” value came to 340 nM (input ligand: FMN 200 uM) and 227 nM (input ligand: none).
Regarding “GAUAGAGAGCAGGAUAUCUUGGGUUAGUAUCGUAGAGAAGGGCUCACAUGAGGAUCACCCAUGUGGUCCAAGAU [JL Dibiri mod 02] (puzzle: Exclusion 6)”, the “apparent KD of MS2 coat protein” value reads like this: under setting [3], 36.5 nM; under setting [1], 15.1 nM; under setting [4], 13.3 nM.
For the sequence “ACUAGAUGAGGAUAUGCAUAUUUUCGUGUUCUUCUAGAUUAACAUGAGGAUCACCCAUGUAGAAGGCGUCUGGU [Exclusion 2 - 19] (puzzle: Exclusion 2)”, the “apparent KD of MS2 coat protein” value under setting [1] is 29.7 nM.
For “GCGGGCUUUUAGGUUCUUAACAUGAGGAUCACCCAUGUGCUCGUCUUGCCGGCCGGCGGGCCGCCGGCCGGGCUUGU (Eterna round: R97, puzzle: Sensor, turn-off variant 1)”, the “apparent KD of MS2 coat protein” value (input ligand: FMN 200 uM) worked out at 66.4 nM and the “apparent KD of MS2 coat protein” value (input ligand: none) turned out to be 68.2 nM.
Consider “CCGAGGUGGCGGUCCUAUGACAUGAGGAUCACCCAUGUACCUCGCCACGAGCUUUUUGCUCAUCUUAUAAUUCUCGG [Edbibice] (puzzle: Sensor v3, turn-off variant 1)”, for which the “apparent KD of MS2 coat protein” value by setting is: under setting [3], 17.2 nM; under setting [1], 18.9 nM; under setting [4], 16.6 nM.
